Source: article PMC5378873 (Oncogene, 2016)

Target: FKBP12 (protein used for ITC) (human, UniProt P62942 1-108)
Test: ITC

Sequence of FKBP12 (protein used for ITC) (P62942 whole entry): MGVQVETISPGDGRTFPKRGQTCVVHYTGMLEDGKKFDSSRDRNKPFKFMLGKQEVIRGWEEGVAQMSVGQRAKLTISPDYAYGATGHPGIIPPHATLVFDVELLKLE

Kd: 1940 nM
B1: MDM2 (425-491) RING domain (protein used for ITC) (domain or fragment, human, UniProt Q00987 425-491, looked up)
chain: SVESSLPLNAIEPCVICQGRPKNGCIVHGKTGHLMACFTCAKKLKKRNKPCPVCRQPIQMIVLTYFP
